Here are results for eight sequences from the supplement of paper PMC10065799, “High-throughput profiling of sequence recognition by tyrosine kinases and SH2 domains using bacterial peptide display” (eLife, 2023).

Data set [1] concerns the target Fes (UniProt P07332). Put plainly: phosphorylation enrichment, bacterial display (enrichment ratio); higher = better substrate or ligand; peptides without Tyr show the background.
Data set [2] addresses EPHB2 (UniProt P29323). The description is as above.
Data set [3] relates to AncSZ. The data set is described as above.
The subject of data set [4] is Fer (mouse). The data set is described as above.
Data set [5] deals with MERTK (UniProt Q12866). The description is as above.
In data set [6] the test system is c-Src. The data set is described as above.
The target of data set [7] is FGFR1 (UniProt P11362). Described as above.
The target in data set [8] is Fyn (UniProt P06241). Described as above.
For data set [9], the system named is c-Abl (mouse). Described as above.
Data set [10] deals with FGFR3 (UniProt P22607). The description is as above.
Sequence of FGFR3 (P22607 whole entry, looked up): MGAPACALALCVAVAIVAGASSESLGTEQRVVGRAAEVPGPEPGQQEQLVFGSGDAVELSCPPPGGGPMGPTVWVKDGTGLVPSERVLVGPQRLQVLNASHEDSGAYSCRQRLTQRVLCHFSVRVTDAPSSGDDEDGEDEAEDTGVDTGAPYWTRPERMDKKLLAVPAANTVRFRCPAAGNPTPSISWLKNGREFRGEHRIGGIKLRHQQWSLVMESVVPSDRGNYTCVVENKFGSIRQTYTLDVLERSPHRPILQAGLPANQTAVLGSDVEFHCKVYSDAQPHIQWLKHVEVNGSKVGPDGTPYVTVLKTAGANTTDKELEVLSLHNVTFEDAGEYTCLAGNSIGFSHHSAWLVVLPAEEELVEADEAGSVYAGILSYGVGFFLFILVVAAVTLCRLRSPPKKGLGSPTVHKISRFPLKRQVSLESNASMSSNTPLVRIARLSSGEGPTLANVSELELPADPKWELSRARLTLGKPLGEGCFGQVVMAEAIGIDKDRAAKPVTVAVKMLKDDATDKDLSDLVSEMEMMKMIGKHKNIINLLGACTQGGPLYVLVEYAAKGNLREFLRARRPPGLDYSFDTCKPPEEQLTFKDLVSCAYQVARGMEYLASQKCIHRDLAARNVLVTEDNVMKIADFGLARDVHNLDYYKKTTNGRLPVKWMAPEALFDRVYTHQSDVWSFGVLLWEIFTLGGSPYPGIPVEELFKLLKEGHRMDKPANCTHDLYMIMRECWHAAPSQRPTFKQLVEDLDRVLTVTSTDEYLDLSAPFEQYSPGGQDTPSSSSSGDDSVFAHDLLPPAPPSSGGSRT
Data set [11] concerns the target Hck (UniProt P08631). The description is as above.
Data set [12] deals with Jak2 (UniProt O60674). Described as above.
Sequence of Jak2 (O60674 whole entry, looked up): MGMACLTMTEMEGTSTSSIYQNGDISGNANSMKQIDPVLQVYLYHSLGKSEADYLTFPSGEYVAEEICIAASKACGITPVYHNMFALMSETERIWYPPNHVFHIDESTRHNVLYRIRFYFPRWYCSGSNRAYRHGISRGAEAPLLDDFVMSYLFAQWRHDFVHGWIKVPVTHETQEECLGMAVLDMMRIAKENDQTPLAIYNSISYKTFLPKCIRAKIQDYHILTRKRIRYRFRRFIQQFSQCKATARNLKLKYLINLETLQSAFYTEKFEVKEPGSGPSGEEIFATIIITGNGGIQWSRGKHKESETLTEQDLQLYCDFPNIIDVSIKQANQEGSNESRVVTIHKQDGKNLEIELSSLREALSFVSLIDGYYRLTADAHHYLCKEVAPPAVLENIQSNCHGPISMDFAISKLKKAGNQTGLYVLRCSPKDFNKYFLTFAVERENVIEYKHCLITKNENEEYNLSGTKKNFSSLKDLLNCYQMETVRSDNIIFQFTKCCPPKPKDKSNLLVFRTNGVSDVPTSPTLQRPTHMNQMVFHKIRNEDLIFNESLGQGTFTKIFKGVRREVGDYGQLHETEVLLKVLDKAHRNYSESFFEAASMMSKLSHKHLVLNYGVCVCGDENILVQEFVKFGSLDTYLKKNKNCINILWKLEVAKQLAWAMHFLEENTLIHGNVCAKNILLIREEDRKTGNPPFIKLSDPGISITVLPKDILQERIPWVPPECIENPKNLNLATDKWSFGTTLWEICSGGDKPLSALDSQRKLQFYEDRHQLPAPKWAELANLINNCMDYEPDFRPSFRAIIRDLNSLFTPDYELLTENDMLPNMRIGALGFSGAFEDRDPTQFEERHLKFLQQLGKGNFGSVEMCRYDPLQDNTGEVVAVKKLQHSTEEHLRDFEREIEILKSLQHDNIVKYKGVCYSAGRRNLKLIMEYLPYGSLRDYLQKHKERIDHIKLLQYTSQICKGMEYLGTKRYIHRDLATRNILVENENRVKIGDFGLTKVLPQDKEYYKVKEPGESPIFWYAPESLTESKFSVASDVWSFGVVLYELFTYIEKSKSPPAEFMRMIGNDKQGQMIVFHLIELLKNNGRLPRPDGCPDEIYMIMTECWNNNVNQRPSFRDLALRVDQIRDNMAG
Data set [13] deals with EPHB1 (UniProt P54762). The data set is described as above.
Sequence of EPHB1 (P54762 whole entry, looked up): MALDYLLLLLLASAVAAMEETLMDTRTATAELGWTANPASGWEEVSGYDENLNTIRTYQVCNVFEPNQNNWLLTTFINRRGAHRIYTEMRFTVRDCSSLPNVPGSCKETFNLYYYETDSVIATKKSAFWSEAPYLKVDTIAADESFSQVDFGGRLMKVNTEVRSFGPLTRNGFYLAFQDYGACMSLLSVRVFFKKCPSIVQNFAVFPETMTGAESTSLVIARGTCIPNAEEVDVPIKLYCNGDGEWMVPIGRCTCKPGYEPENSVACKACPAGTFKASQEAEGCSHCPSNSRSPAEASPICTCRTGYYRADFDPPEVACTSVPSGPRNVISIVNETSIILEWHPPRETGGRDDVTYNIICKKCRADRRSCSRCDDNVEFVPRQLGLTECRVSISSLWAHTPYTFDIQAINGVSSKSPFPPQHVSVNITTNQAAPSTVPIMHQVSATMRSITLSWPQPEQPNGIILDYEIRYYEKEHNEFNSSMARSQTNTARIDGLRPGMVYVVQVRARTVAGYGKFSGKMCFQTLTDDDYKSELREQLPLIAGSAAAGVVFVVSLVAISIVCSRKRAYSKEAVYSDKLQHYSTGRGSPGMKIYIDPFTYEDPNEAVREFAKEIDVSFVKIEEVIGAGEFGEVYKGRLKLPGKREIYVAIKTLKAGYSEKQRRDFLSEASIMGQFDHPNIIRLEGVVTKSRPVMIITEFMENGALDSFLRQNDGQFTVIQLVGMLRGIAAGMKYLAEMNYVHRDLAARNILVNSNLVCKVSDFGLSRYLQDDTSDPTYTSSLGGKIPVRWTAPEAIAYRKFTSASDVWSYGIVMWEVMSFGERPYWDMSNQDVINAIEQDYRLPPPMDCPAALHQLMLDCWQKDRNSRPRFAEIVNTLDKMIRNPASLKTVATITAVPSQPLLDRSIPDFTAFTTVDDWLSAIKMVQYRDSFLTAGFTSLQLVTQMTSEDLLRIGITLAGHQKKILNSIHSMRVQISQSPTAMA
Data set [14] has as its target Grb2 SH2 (UniProt P62993). Description: SH2 binding enrichment of the phosphorylated peptide, bacterial display (enrichment ratio); higher = better substrate or ligand; peptides without Tyr show the background.
The target in data set [15] is c-Src SH2. The data set is described as above.
In data set [16] the target is SHP2-C SH2. The data set is described as above.
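Throughout, for SH2 binding enrichment of the phosphorylated peptide, bacterial display: peptide library displayed on the E. coli surface as eCPX fusions, selected cells deep-sequenced, score is each peptide's frequency after selection divided by its frequency in the input.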
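Throughout, for phosphorylation enrichment, bacterial display: 11-residue human phosphosite peptides and single-mutation variants displayed on the E. coli surface, counted by deep sequencing, each peptide's frequency after selection divided by its frequency in the unselected input library; frequency after pTyr selection over input frequency; kinase dosed for 20-30% of maximal phosphorylation in three min.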

Sequence of Hck (P08631 whole entry, looked up): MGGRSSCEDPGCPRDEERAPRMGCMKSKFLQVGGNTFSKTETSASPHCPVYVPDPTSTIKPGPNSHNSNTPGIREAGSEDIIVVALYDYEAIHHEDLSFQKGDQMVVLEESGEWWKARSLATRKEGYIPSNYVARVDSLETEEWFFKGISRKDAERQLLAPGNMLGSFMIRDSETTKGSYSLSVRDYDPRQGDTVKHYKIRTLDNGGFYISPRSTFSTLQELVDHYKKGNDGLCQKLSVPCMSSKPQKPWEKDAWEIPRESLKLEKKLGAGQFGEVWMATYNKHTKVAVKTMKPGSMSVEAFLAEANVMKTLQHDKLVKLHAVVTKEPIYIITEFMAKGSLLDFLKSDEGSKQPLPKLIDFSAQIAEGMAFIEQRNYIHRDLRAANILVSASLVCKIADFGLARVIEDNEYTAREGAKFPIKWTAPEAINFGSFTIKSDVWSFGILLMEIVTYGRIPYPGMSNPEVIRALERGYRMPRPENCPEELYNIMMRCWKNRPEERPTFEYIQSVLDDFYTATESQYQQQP
Sequence of EPHB2 (P29323 whole entry, looked up): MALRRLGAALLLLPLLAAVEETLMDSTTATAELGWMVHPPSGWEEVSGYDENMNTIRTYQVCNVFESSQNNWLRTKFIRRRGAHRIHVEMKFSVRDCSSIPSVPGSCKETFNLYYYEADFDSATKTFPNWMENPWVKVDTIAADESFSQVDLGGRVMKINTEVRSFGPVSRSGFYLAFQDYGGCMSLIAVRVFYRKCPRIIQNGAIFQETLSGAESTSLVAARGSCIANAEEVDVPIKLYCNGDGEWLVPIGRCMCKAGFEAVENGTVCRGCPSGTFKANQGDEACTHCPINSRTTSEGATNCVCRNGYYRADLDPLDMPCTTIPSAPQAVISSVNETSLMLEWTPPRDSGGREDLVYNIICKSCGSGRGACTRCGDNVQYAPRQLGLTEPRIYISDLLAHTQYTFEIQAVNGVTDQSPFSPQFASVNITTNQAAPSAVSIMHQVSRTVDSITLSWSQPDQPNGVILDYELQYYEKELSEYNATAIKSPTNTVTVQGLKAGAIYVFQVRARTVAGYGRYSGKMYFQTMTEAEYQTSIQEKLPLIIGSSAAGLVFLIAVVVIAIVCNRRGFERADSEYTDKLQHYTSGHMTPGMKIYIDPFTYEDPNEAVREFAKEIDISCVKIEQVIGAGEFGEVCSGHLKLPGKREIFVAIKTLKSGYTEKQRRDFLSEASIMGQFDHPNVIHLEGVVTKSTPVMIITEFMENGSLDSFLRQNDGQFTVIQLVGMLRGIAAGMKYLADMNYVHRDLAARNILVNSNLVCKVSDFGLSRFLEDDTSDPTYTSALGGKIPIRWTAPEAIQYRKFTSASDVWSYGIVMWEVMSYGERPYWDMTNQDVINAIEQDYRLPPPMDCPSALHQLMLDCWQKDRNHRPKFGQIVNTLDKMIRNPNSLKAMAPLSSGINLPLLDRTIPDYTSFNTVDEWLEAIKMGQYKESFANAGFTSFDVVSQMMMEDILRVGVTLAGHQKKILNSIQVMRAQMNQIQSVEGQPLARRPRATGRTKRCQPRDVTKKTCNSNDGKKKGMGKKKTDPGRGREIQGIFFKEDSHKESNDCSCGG
Sequence of Grb2 SH2 (P62993 whole entry, looked up): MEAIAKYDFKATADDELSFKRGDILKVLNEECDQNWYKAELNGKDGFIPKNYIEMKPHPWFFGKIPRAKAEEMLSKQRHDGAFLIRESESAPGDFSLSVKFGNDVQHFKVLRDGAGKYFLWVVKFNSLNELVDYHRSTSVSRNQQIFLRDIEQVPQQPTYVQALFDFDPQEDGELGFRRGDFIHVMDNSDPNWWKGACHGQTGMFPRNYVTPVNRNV

As to SVVVPYEPLEV [TP53_Y220_P223L], the phosphorylation enrichment in data set [1] is 1.23; in data set [2], 0.602; in data set [3], 1.19; in data set [4], 0.934; in data set [5], 0.489; in data set [6], 0.46. Moreover, the phosphorylation enrichment in data set [7] is 0.531; in data set [8], 0.587; in data set [9] it was 0.697; in [10], 0.836; in data set [11], 0.533; in [12], 0.947. Moreover, the phosphorylation enrichment in data set [13] came out at 0.562. The SH2 binding enrichment in [14] came to 0.849; in data set [15] it was 2.45; in data set [16] it was 0.598.

Take SWDKRYCEAGC [ITGA2B_Y197_F202C]: the phosphorylation enrichment in [1] is 0.887; in data set [2] it was 0.41; in [3] it was 0.859; in data set [4] it was 0.383; in data set [5] it was 0.401; in [6] it was 0.357. Moreover, the phosphorylation enrichment worked out at 0.507 in [7]; 0.454 in data set [8]; 0.984 in data set [9]; 0.541 in [10]; 0.417 in data set [11]; 0.641 in data set [12]. In addition, the phosphorylation enrichment in data set [13] was determined as 0.446. Further, the SH2 binding enrichment in data set [14] came to 0.957; in [15], 0.651; in data set [16] it was 1.23.

Take TDGIAYEFRVI: the phosphorylation enrichment in data set [1] is 1.34; in data set [2], 0.603; in data set [3] it was 1.46; in data set [4], 0.843; in [5], 0.495; in [6], 0.527. Further, the phosphorylation enrichment in data set [7] was found to be 0.507; in [8] it was 0.514; in [9] it was 0.854; in data set [10] it was 0.852; in data set [11] it was 0.655; in [12] it was 1.32. Also, the phosphorylation enrichment in data set [13] is 0.659. In addition, the SH2 binding enrichment in data set [14] came to 0.753; in data set [15] it was 0.47; in data set [16], 0.642.

For TDTAAYEERLR [SPTB_Y474_V478L], the phosphorylation enrichment in data set [1] turned out to be 0.914; in [2], 0.648; in [3], 0.936; in [4], 0.458; in data set [5], 0.482; in data set [6], 0.478. Moreover, the phosphorylation enrichment in data set [7] was 0.668; in data set [8], 0.67; in [9], 0.48; in data set [10] it was 0.71; in data set [11], 0.516; in data set [12], 0.742. Moreover, the phosphorylation enrichment in data set [13] came to 0.49. The figures for the SH2 binding enrichment in data set [14], in data set [15] and in [16] were 0.849, 0.504 and 0.924, respectively.

For TEAEPYYCSLR [NPHS1_Y1138_R1140C], the phosphorylation enrichment in [1] is 1.5; in data set [2], 1.43; in data set [3] it was 1.81; in data set [4] it was 1.8; in [5], 2.78; in [6] it was 3.96. Moreover, the phosphorylation enrichment in data set [7] was 1.49; in [8], 4.22; in [9], 1.18; in data set [10], 1.47; in [11], 4.2; in data set [12], 1.4. Further, the phosphorylation enrichment in [13] came to 1.5. For the same sequence, the SH2 binding enrichment came to 0.893 in data set [14], 1.22 in [15] and 0.73 in [16].

As for TEQDPYNSIVR [MMUT_Y364_N366S], the phosphorylation enrichment was found to be 1.01 in [1]; 0.616 in data set [2]; 1.03 in data set [3]; 0.488 in data set [4]; 0.4 in [5]; 0.593 in data set [6]. Further, the phosphorylation enrichment was determined as 0.697 in data set [7]; 0.494 in data set [8]; 0.661 in data set [9]; 0.665 in [10]; 0.551 in data set [11]; 0.889 in [12]. For the same sequence, the phosphorylation enrichment in data set [13] was found to be 0.496. For the same sequence, the SH2 binding enrichment in data set [14] was 0.952; in [15], 1.48; in data set [16], 0.711.

Consider TESALYGCTVL [KIAA1804_Y724], for which the phosphorylation enrichment in data set [1] came out at 1.27; in data set [2], 0.885; in data set [3], 1.13; in data set [4], 4.71; in data set [5], 1.46; in data set [6], 4.74. Moreover, the phosphorylation enrichment was 0.559 in data set [7]; 5.57 in [8]; 1.04 in [9]; 1.15 in data set [10]; 4.05 in data set [11]; 1.12 in [12]. For the same sequence, the phosphorylation enrichment in data set [13] turned out to be 0.686. Further, the figures for the SH2 binding enrichment in [14], in [15] and in [16] were 0.82, 0.552 and 0.916, respectively.

TESNNYIYKTL [FAM83B_Y637]: the phosphorylation enrichment in data set [1] was 0.696; in [2], 0.44; in data set [3] it was 0.729; in data set [4] it was 0.512; in data set [5], 0.535; in [6], 1.28. The phosphorylation enrichment stood at 0.625 in [7]; 1.31 in [8]; 0.559 in data set [9]; 0.64 in [10]; 0.99 in data set [11]; 0.63 in [12]. In addition, the phosphorylation enrichment in data set [13] turned out to be 0.483. The SH2 binding enrichment is 0.738 in [14], 0.523 in data set [15] and 1.65 in [16].
